Data reported in patent US5298404.

Experiments:
[1] = tested on: HpaI restriction endonuclease (native) (Haemophilus parainfluenzae); assay: cleavage_in_vitro; details: 10 mM Tris pH 7.5, 10 mM MgCl2, 100 mM NaCl, 37 C
[2] = tested on: HpaI restriction endonuclease (recombinant) (Haemophilus parainfluenzae); assay: cleavage_in_vitro; details: assay as for native enzyme; Mg2+, 37 C

## phage lambda DNA
[1]
  activity: 250000 units/mg
[2]
  activity: 250000 units/mg
